In series [1] the target is purified plasma factor B, P00751.
Series [2] concerns the target ST-pro-factor D-His, P00746.
The target in another series is pro-factor D-His (UniProt P00746).
Another series deals with ST-pro-factor D-His (UniProt P00746).

Experimental findings from patent US20130344073 are described below.

ST-pro-factor D-His, P00746, sequence (P00746 whole entry, looked up): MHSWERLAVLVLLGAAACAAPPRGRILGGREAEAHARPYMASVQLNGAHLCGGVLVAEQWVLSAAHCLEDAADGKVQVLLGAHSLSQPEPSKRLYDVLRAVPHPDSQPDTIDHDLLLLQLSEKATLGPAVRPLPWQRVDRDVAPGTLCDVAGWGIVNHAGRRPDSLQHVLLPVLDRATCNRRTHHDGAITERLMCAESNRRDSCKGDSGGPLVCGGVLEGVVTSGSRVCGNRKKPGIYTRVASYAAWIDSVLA
purified plasma factor B, P00751, sequence (P00751 26-764): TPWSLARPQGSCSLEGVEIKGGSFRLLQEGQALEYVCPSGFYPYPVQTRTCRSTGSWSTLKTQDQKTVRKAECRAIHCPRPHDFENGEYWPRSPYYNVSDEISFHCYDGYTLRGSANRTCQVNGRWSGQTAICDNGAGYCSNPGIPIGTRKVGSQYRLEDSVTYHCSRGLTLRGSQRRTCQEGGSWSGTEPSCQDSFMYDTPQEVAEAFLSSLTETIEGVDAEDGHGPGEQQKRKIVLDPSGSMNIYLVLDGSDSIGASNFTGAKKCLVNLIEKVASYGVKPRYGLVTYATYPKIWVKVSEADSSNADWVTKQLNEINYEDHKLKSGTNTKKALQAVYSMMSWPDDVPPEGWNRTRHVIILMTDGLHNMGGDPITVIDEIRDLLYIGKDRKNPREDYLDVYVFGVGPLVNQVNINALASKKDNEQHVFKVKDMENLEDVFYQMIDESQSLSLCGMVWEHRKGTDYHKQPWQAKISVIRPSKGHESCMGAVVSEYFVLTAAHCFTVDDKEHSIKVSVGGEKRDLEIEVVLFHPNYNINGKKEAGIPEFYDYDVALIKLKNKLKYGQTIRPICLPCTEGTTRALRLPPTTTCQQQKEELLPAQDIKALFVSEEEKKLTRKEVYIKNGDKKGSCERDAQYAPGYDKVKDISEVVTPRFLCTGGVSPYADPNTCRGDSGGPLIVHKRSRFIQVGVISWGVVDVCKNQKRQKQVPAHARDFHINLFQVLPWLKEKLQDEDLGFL
ST-pro-factor D-His, sequence (P00746 other isoform, or with tags, fused parts or gaps): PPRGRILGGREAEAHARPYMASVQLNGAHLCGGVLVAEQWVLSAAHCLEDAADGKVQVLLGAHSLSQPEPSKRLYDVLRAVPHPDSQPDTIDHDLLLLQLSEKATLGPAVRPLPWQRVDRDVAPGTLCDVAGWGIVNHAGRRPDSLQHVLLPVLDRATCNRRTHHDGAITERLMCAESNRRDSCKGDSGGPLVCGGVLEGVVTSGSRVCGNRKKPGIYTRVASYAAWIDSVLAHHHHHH
pro-factor D-His, sequence (P00746 other isoform, or with tags, fused parts or gaps): as above
pro-factor D-His, P00746, sequence (P00746 whole entry, looked up): as the sequence (P00746 whole entry, looked up) above

B1: human MASP-3 (protein)
chain: HTVELNNMFGQIQSPGYPDSYPSDSEVTWNITVPDGFRIKLYFMHFNLESSYLCEYDYVKVETEDQVLATFCGRETTDTEQTPGQEVVLSPGSFMSITFRSDFSNEERFTGFDAHYMAVDVDECKEREDEELSCDHYCHNYIGGYYCSCRFGYILHTDNRTCRVECSDNLFTQRTGVITSPDFPNPYPKSSECLYTIELEEGFMVNLQFEDIFDIEDHPEVPCPYDYIKIKVGPKVLGPFCGEKAPEPISTQSHSVLILFHSDNSGENRGWRLSYRAAGNECPELQPPVHGKIEPSQAKYFFKDQVLVSCDTGYKVLKDNVEMDTFQIECLKDGTWSNKIPTCKIVDCRAPGELEHGLITFSTRNNLTTYKSEIKYSCQEPYYKMLNNNTGIYTCSAQGVWMNKVLGRSLPTCLPECGQPSRSLPSLVKRIIGGRNAEPGLFPWQALIVVEDTSRVPNDKWFGSGALLSASWILTAAHVLRSQRRDTTVIPVSKEHVTVYLGLHDVRDKSGAVNSSAARVVLHPDFNIQNYNHDIALVQLQEPVPLGPHVMPVCLPRLEPEGPAPHMLGLVAGWGISNPNVTVDEIISSGTRTLSDVLQYVKLPVVPHAECKTSYESRSGNYSVTENMFCAGYYEGGKDTCLGDSGGAFVIFDDLSQRWVVQGLVSWGGPEECGSKQVYGVYTKVSNYVDWVWEQMGLPQSVVEPQVER
As to B1, in series [1], the “factor B cleavage (Coomassie-stained SDS-PAGE), with C3(H2O)” value was “either MASP-3 or pro-factor D are able to mediate factor B cleavage, as long as C3 is present”. In series [2], the “cleavage of pro-factor D (Western blot), 80 ng MASP-3, 70 ng substrate, 75 minutes at 37 C” value is reported as “MASP-3 cleaves approximately 50% of pro-factor D into factor D (lane 1)”.

B2: recombinant MASP-1 (CCP1-CCP2-SP) fragment (enzyme, part only; not given: amino-terminal Strep tag)
chain, part: GNECPELQPPVHGKIEPSQAKYFFKDQVLVSCDTGYKVLKDNVEMDTFQIECLKDGTWSNKIPTCKIVDCRAPGELEHGLITFSTRNNLTTYKSEIKYSCQEPYYKMLNNNTGIYTCSAQGVWMNKVLGRSLPTCLPVCGLPKFSRKLMARIFNGRPAQKGTTPWIAMLSHLNGQPFCGGSLLGSSWIVTAAHCLHQSLDPKDPTLRDSDLLSPSDFKIILGKHWRLRSDENEQHLGVKHTTLHPKYDPNTFENDVALVELLESPVLNAFVMPICLPEGPQQEGAMVIVSGWGKQFLQRFPETLMEIEIPIVDHSTCQKAYAPLKKKVTRDMICAGEKEGGKDACSGDSGGPMVTLNRERGQWYLVGTVSWGDDCGKKDRYGVYSYIHHNKDWIQRVTGVRNHHHHHH
For the protein B2, the “cleavage of pro-factor D (Western blot)” value was “Identical results were obtained with the pro-factor D-His6 polypeptide (not shown)” in the series with pro-factor D-His; “only full length MASP-3 (lane 2) and the MASP-1 CCP1-CCP2-SP) fragment (lane 5) cleaved ST-pro-factor D-His6” in the series with ST-pro-factor D-His.

B3: catalytically-inactive MASP-1 (S646A) (protein)
chain: HTVELNNMFGQIQSPGYPDSYPSDSEVTWNITVPDGFRIKLYFMHFNLESSYLCEYDYVKVETEDQVLATFCGRETTDTEQTPGQEVVLSPGSFMSITFRSDFSNEERFTGFDAHYMAVDVDECKEREDEELSCDHYCHNYIGGYYCSCRFGYILHTDNRTCRVECSDNLFTQRTGVITSPDFPNPYPKSSECLYTIELEEGFMVNLQFEDIFDIEDHPEVPCPYDYIKIKVGPKVLGPFCGEKAPEPISTQSHSVLILFHSDNSGENRGWRLSYRAAGNECPELQPPVHGKIEPSQAKYFFKDQVLVSCDTGYKVLKDNVEMDTFQIECLKDGTWSNKIPTCKIVDCRAPGELEHGLITFSTRNNLTTYKSEIKYSCQEPYYKMLNNNTGIYTCSAQGVWMNKVLGRSLPTCLPVCGLPKFSRKLMARIFNGRPAQKGTTPWIAMLSHLNGQPFCGGSLLGSSWIVTAAHCLHQSLDPEDPTLRDSDLLSPSDFKIILGKHWRLRSDENEQHLGVKHTTLHPQYDPNTFENDVALVELLESPVLNAFVMPICLPEGPQQEGAMVIVSGWGKQFLQRFPETLMEIEIPIVDHSTCQKAYAPLKKKVTRDMICAGEKEGGKDACAGDAGGPMVTLNRERGQWYLVGTVSWGDDCGKKDRYGVYSYIHHNKDWIQRVTGVRN
Regarding B3, the “cleavage of pro-factor D (Western blot)” value with pro-factor D-His, P00746 is “The catalytically-inactive full length MASP-3 (S679A; lane 3) and MASP-1 (S646A; lane 3) failed to cleave either substrate”; in series [2] it was “The catalytically-inactive full length MASP-3 (S679A; lane 3) and MASP-1 (S646A; lane 3) failed to cleave either substrate”.
